T1: IDUA 218 signature peptide (IDUA 218-230)
T1 construct: Endogenous tryptic peptide from digested DBS, PBMC or buccal swab samples; An internal standard version of the same peptide (1.25 fmol) was captured alongside it; also called first IDUA signature peptide
T1 peptide: LGGPGDSFHTPPR

T2: IDUA 462 signature peptide (IDUA 462-474)
T2 construct: Endogenous tryptic peptide from digested DBS, PBMC or buccal swab samples; An internal standard version of the same peptide (1.25 fmol) was captured alongside it; also called second IDUA signature peptide
T2 peptide: GVPPGPGLVYVTR

B1: anti-IDUA 218 monoclonal antibody (antibody, V domains shown)
VH: QVQLQQPGTELVKPGASVKLSCKASGYTFTRYWMHWVKQRPGQGLEWIGEINPSNGGTNYNEKFKNKATLNVDKSSSTAYMQLSSLTSEDSAVYYCTLAMDYWGQGTSVTVSS
VL: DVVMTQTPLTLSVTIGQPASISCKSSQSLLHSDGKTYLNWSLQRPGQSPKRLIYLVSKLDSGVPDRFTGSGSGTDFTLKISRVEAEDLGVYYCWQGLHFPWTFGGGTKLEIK
notes: Used as a monoclonal antibody coated on Protein G magnetic beads (1 ug per assay)
B2: anti-IDUA 462 monoclonal antibody (antibody, V domains shown)
VH: EVQLQQSGAELVKPGASVKLSCTASGFNIKDTYMHWVNQRPEQGLEWIGRIDPANGNTKYGPKFQGKATITADTSSNTAYLQLSSLTSEDTAVYYCAQTARAPFAYWGQGTLVTVSA
VL: DIVITQDEVSNPVTSGESVSISCRSSKSLLYKDGKTYLNWFLQRPGQSPQLLVYWMSTRASGVSDRFSGSGSGTDFTLKISRVKAEDVGMYYCQQVVEYPFTFGTGTKLEIK
notes: Used as a monoclonal antibody coated on Protein G magnetic beads (4 ug per assay)

Legend:
[1] = target: T1, IDUA 218 signature peptide (IDUA …); assay: immuno-SRM, mAb on Protein G magnetic beads, peptide capture from PBMC digest
[2] = target: T2, IDUA 462 signature peptide (IDUA …); assay: as above

Binder | binding result [1] | binding result [2]
B1 | binds | 
B2 |  | binds
